From patent US10702592B2, “Peptides and combination of peptides for use in immunotherapy against NHL and other cancers” (Immatics Biotechnologies GmbH, priority 2016, dated 2020)

These substances were tested against HLA-A*02:01 (Homo sapiens, UniProt P04439, D140Y/D185E/D98H/E176V/E277Q/G131W/G231S/I119V/I121R/I166T/I218V/L300P/L318F/N151K/N90K/P208A/P217A/Q86G/Q94H/R138H/R169H/T345S) (assay: MHC binding assay (UV-ligand exchange, beta2m ELISA)). Details: binding to HLA-A*02:01, UV-ligand exchange.
From the text: Candidate peptides for T cell based therapies according to the present invention were further tested for their MHC binding capacity (affinity). The individual peptide-MHC complexes were produced by UV-ligand exchange, where a UV-sensitive peptide is cleaved upon UV-irradiation, and exchanged with the peptide of interest as analyzed. Only peptide candidates that can effectively bind and stabilize the peptide-receptive MHC molecules prevent dissociation of the MHC complexes. To determine the yield of the exchange reaction, an ELISA was performed based on the detection of the light chain (β2m) of stabilized MHC complexes. The assay was performed as generally described in Rodenko et al. (Rodenko et al., 2006).
96 well MAXISorp plates (NUNC) were coated over night with 2 ug/ml streptavidin in PBS at room temperature, washed 4× and blocked for 1 h at 37° C. in 2% BSA containing blocking buffer. Refolded HLA-A*02:01/MLA-001 monomers served as standards, covering the range of 15-500 ng/ml. Peptide-MHC monomers of the UV-exchange reaction were diluted 100 fold in blocking buffer. Samples were incubated for 1 h at 37° C., washed four times, incubated with 2 ug/ml HRP conjugated anti-β2m for 1 h at 37° C., washed again and detected with TMB solution that is stopped with […]. Absorption was measured at 450 nm. Candidate peptides that show a high exchange yield (preferably higher than 50%, most preferred higher than 75%) are generally preferred for a generation and production of antibodies or fragments thereof, and/or T cell receptors or fragments thereof, as they show sufficient avidity to the MHC molecules and prevent dissociation of the MHC complexes.

Substance	Peptide exchange (MHC class I binding score, peptide exchange yield)
149 (ILNPVTTKL; listed as Homo sapiens) [compound 149]	“+++” (≥50 = +++)
98 (MLQDGIARL; listed as Homo sapiens) [compound 98]	“+++” (≥50 = +++)
205 (TLFYESPHL; listed as Homo sapiens) [compound 205]	“+++” (≥50 = +++)
151 (ILVKQSPML; listed as Homo sapiens) [compound 151]	“+++” (≥50 = +++)
219 (ALLELENSV; listed as Homo sapiens) [compound 219]	“++” (≥20% = ++)
177 (YLYEAEEATTL; listed as Homo sapiens) [compound 177]	“+++” (≥50 = +++)
153 (KLLKGIYAI; listed as Homo sapiens) [compound 153]	“+++” (≥50 = +++)
54 (DIFDAMFSV; listed as Homo sapiens) [compound 54]	“+” (≥10% = +)
195 (ALIPDLNQI; listed as Homo sapiens) [compound 195]	“+++” (≥50 = +++)
58 (QLAPFLPQL; listed as Homo sapiens) [compound 58]	“+++” (≥50 = +++)
83 (FLMDDNMSNTL; listed as Homo sapiens) [compound 83]	“+++” (≥50 = +++)
184 (AVLGTSWQL; listed as Homo sapiens) [compound 184]	“+++” (≥50 = +++)
69 (TLLAFPLLL; listed as Homo sapiens) [compound 69]	“++++” (≥75% = ++++)
10 (FLLVGTQIDL; listed as Homo sapiens) [compound 10]	“+++” (≥50 = +++)
161 (NLMLELETV; listed as Homo sapiens) [compound 161]	“+++” (≥50 = +++)
50 (LLLDGLIYL; listed as Homo sapiens) [compound 50]	“+++” (≥50 = +++)
148 (ICAGHVPGV; listed as Homo sapiens) [compound 148]	“+++” (≥50 = +++)
72 (TLQEETAVYL; listed as Homo sapiens) [compound 72]	“++” (≥20% = ++)
132 (VLQDQVDEL; listed as Homo sapiens) [compound 132]	“++” (≥20% = ++)
189 (SLSHLVPAL; listed as Homo sapiens) [compound 189]	“+++” (≥50 = +++)
154 (KLMNIQQQL; listed as Homo sapiens) [compound 154]	“+++” (≥50 = +++)
23 (ALVEDIINL; listed as Homo sapiens) [compound 23]	“++++” (≥75% = ++++)

Substance	Peptide exchange (MHC class I binding score, peptide exchange yield)
16 (TLIAAILYL; listed as Homo sapiens) [compound 16]	“++” (≥20% = ++)
172 (TLQDSLEFI; listed as Homo sapiens) [compound 172]	“++++” (≥75% = ++++)
190 (GLIELVDQL; listed as Homo sapiens) [compound 190]	“+++” (≥50 = +++)
211 (FIDDLFAFV; listed as Homo sapiens) [compound 211]	“+++” (≥50 = +++)
220 (FLAEAPTAL; listed as Homo sapiens) [compound 220]	“++” (≥20% = ++)
128 (KLFDASPTFFA; listed as Homo sapiens) [compound 128]	“+++” (≥50 = +++)
129 (SLFEASQQL; listed as Homo sapiens) [compound 129]	“+++” (≥50 = +++)
200 (YLLDFEDRL; listed as Homo sapiens) [compound 200]	“++++” (≥75% = ++++)
89 (GLTALHVAV; listed as Homo sapiens) [compound 89]	“+++” (≥50 = +++)
186 (FLDVSRDFV; listed as Homo sapiens) [compound 186]	“+++” (≥50 = +++)
96 (LLLNENESLFL; listed as Homo sapiens) [compound 96]	“+++” (≥50 = +++)
76 (ALADLVPVDVVV; listed as Homo sapiens) [compound 76]	“++++” (≥75% = ++++)
56 (GLQDLLFSL; listed as Homo sapiens) [compound 56]	“+++” (≥50 = +++)
155 (KLMTSLVKV; listed as Homo sapiens) [compound 155]	“+++” (≥50 = +++)
193 (SLADSMPSL; listed as Homo sapiens) [compound 193]	“++” (≥20% = ++)
109 (YLFQFSAAL; listed as Homo sapiens) [compound 109]	“+++” (≥50 = +++)
95 (LLFDLIPVVSV; listed as Homo sapiens) [compound 95]	“+++” (≥50 = +++)
147 (GLSEYQRNFL; listed as Homo sapiens) [compound 147]	“+++” (≥50 = +++)
117 (VLATILAQL; listed as Homo sapiens) [compound 117]	“++++” (≥75% = ++++)
160 (LLPPPSPAA; listed as Homo sapiens) [compound 160]	“+++” (≥50 = +++)
77 (ALLDVSNNYGI; listed as Homo sapiens) [compound 77]	“++++” (≥75% = ++++)

More lines, now with the values ahead:

Peptide exchange (MHC class I binding score, peptide exchange yield)	Substance
“+++” (≥50 = +++)	308 (SLLDQIPEM; listed as Homo sapiens) [compound 308]
“++” (≥20% = ++)	224 (FLSPLLPLL; listed as Homo sapiens) [compound 224]
“+++” (≥50 = +++)	305 (AMLAQQMQL; listed as Homo sapiens) [compound 305]
“+++” (≥50 = +++)	248 (NLLEQFILL; listed as Homo sapiens) [compound 248]
“++++” (≥75% = ++++)	271 (YLLDQPVLEQRL; listed as Homo sapiens) [compound 271]
“++++” (≥75% = ++++)	242 (GILDFZVFL; listed as Homo sapiens) [compound 242]
“+++” (≥50 = +++)	247 (KVLEMETTV; listed as Homo sapiens) [compound 247]
“++++” (≥75% = ++++)	298 (ALTDVILCV; listed as Homo sapiens) [compound 298]
“+++” (≥50 = +++)	301 (LQFDGIHVV; listed as Homo sapiens) [compound 301]
“++++” (≥75% = ++++)	255 (GMWNPNAPVFL; listed as Homo sapiens) [compound 255]
“+++” (≥50 = +++)	288 (RLAPEIVSA; listed as Homo sapiens) [compound 288]
“++++” (≥75% = ++++)	303 (FVWEASHYL; listed as Homo sapiens) [compound 303]
“+++” (≥50 = +++)	302 (SLAELDEKISA; listed as Homo sapiens) [compound 302]
“+++” (≥50 = +++)	307 (FLLPVAVKL; listed as Homo sapiens) [compound 307]
“+++” (≥50 = +++)	309 (SLSFVSPSL; listed as Homo sapiens) [compound 309]
“+++” (≥50 = +++)	251 (VLYELFTYI; listed as Homo sapiens) [compound 251]
“++++” (≥75% = ++++)	236 (SLFDGFFLTA; listed as Homo sapiens) [compound 236]
“+++” (≥50 = +++)	245 (KLIQLPVVYV; listed as Homo sapiens) [compound 245]
